Data: paper PMC8299219 (Cell, 2021)

The binders below were run against SARS-CoV-2 S ectodomain trimer, prefusion-stabilized, 2P variant (Wrapp et al., 2020) (SARS-CoV-2, Wuhan-Hu-1, UniProt P0DTC2, stabilised).

Binder | binding result
G32Q3 (antibody, V domains shown) VH: QVQLVQSGTEVKKPGASVKVSCKASGYTFPNYGITWVRQAPGQGLEWVGWISAYNGNTNYAQKLQGRVTMTTDTSTNTAYMELRSLRSDDTAVYYCARSIAVAGTTAEFDYWGQGTLVTVSS VL: not shown | binds
C12B10 (antibody, V domains shown) VH: EVQLVESGGGLVQPGGSLRLSCAASGFTFSSYAMHWVRQAPGKGLEYVSAINSYGGSTYYANSVKGRFTISRDNSKNTLYLQMGSLRAEDMAVYYCAREVQGVATMDGAFDIWGQGTMVTVSS VL: SYELTQPPSVSVAPGKTARITCGGNNIGSKSVHWYQQKPGQAPVLVIYYDSDRPSGIPERFSGSNSGNTATLTISRVEAGDEADYYCQVWDSSSDPHWVFGGGTKLTVL | binds
C18C10 (antibody, V domains shown) VH: EVQLVESGGGLVQPGGSLRLSCAASGFTFSNYAISWVRQAPGKGLEWVSLISGSGGSTYYADSVKGRFTISRDNSKNTLYLQMNSLRAEDTAVYYCATTNIPPFSGYYLDAFDIWGQGTMVTVSS VL: not shown | binds
C12D1 (antibody, V domains shown) VH: EVQLVQSGAEVIKPGESLKISCKGSGYSFTSYWIGWVRQMPGKGLEWMGIIYPGDSDTRYSPSFQGQVTISADKSISTAYLQWSSLKASDTAIYYCARLGGSVTNIEFIDYWGQGTLVTVSS VL: not shown | binds
C12C6 (antibody, V domains shown) VH: QVQLVESGGGVVQPGRSLRLSCAASGFTFSSYAMHWVRQAPGKGLEWVAVISYDGSNKHYADSVKGRFTISRDNSKNTLYLQMNSLRAEDTAVYYCARDPQYCSSTSCSMGVGWFDPWGQGTLVTVSS VL: SYELTQPPSVSVAPGKTARITCGGNNIGSKSVHWYQQKPGQAPVLVIYYDSDRPSGIPERFSGSNSGNTATLTISRVEAGDEADYYCQVWDSSSDHAYWVFGGGTKLTVL | binds
C63C8 (antibody, V domains shown) VH: EVQLVESGGGLVQPGGSLRLSCAASGFTFSSYWMSWVRQAPGKGLEWVANIKQDGSEKYYVDSVKGRFTMSRDNAKNSLYLQMNSLRAEDTAVYYCASLRWLQADFEYWGQGTLVTVSS VL: NFMLTQPHSVSESPGKTVTISCTRSSGSIASNYVQWYQQRPGSSPTTVIYEDNQRPSGVPDRFSGSIDSSSNSASLTISGLKTEDEADYYCQSYDSTNHVFGTGTKVTVL | binds
G32Q2 (antibody, V domains shown) VH: EVQLLESGGGLVQPGGSLRLSCAASGFTFSNYAMSWVRQAPGKGLEWVSAISGSGSTTYYADSVKGRFTISRDNSKNTLFLQVNSLRAEDTAVYYCAKGERIIMMVVLTLFDYWGQGTLVTVSS VL: QSVLTQPPSVSAAPGQKVTISCPGSSSNIGKNYVSWYQQLPGTAPKLLIYDNNKRPSGIPDRFTGSKSGTSATLDITGLQTGDEADYYCGTWDSSLSAGWVFGGGTKLTVL | binds
C81G11 (antibody, V domains shown) VH: QVQLQESGPGLVKPSGTLSLTCAVSGGSISSSNWWSWVRQPPGKGLEWIGEIYHSGNTNYNPSLTSRVTLSVDKSKNQFSLKLSSVTAADTALYYCAGRFCGSTSCPNWFDPWGQGTLVTVSS VL: QSALTQPASVSGSPGQSITISCTGTSSDVGSYNLVSWYQQHPGKAPKLMIYEGSKRPSGVSNRFSGSKSGNTASLTISGLQAEDEADYYCCSYAGSSTWVFGGGTKLTVL | binds
C12I11 (antibody, V domains shown) VH: QVQLQESGPGLVKPSGTLSLTCAISGGSISSSNWWSWVRQPPGKGLEWIGEIYHSGSTNYNPSLKSRVTISVDKSKNQFSLKLSSVTAADTAVYYCARGALVPAARLNAFDIWGQGTMVTVSS VL: QSALTQPASVSGSPGQSITISCTGTSSDVGSYNLVSWYQQHPGKAPKLMIYEGSKRPSGVSNRFSGSKSGNTASLTISGLQAEDEADYYCCSYAGSSTYVFGTGTKVTVL | binds
C81A3 (antibody, V domains shown) VH: QVQLQESGPGLVKPSGTLSLTCAVSGGSISSSNWWSWVRQPPGKGLEWIGEIYHSGSTNYNPSLKSRVTISVDKSKNQFSLKLSSVTAADTAVYYCARRYCSGGSCSGFDYWGQGTLVTVSS VL: QSALTQPASVSGSPGQSITISCTGTSSDVGSYNLVSWYQHHPGKAPKLMIYEGSKRPSGVSNRFSGSKSGNTASLTISGLQAEDEADYYCCSYAGFSTWVFGGGTKLTVL | binds
C12D6 (antibody, V domains shown) VH: QLQLQETGPGLVKPSGTLSLTCAVSGDSISSSDWWTWVRQPPGKGLEWIGEIYHSGSTNYNPSLKSRVTISVDKSKNQFSLKLSSVTAADTAVYYCARRGRAASERGTGNFDYWGQGTLVTVSS VL: QSALTQPASVSGSPGQSITISCTGTSSDVGSYNLVSWYQQHPGKAPKLMIYEVSKRPSGVSNRFSGSKSGNTASLTISGLQAEDEADYYCCSYAGSSTWVFGGGTKLTVL | binds
C12J11 (antibody, V domains shown) VH: QVQLQESGPGLVKPSGTLSLTCAVSGGSISSSNWWSWVRQPPGKGLEWIGEIYHSGSTNYNPSLKSRVTISVDKSKNQFSLKLSSVTAADTAVYYCAIRASGYYNWFDPWGQGTLVTVSS VL: QSALTQPASVSGSPGQSITISCTGTSSDVGSYNLVSWYQQHPGKAPKLMIYEGSKRPSGVSNRFSGSKSGNTASLTISGLQAEDEADYYCYSYAGSSTWVFGGGTKLTVL | binds
C12I5 (antibody, V domains shown) VH: QVQLQESGPGLVKPSGTLSLTCAVSGGSISSSNWWSWVRQPPGKGLEWIGEIYHSGSTNYNPSLKSRVTISVDKSKNQFSLKLSSVTAADTAVYYCARGWGSSSYWFDPWGQGTLVTVSS VL: QSALTQPASVSGSPGQSITISCTGTSSDVGSYNLVSWYQQHPGKAPKLMIYEGSKRPSGVSNRFSGSKSGNTASLTISGLQAEDEADYYCCSYAGSSTWVFGGGTKLTVL | binds
C81F5 (antibody, V domains shown) VH: QVQLVESGGGVVQPGRSLRLSCAASGFTFSNSGMHWVRQAPGKGLEWVAVISYDGSHKYYADSVKGRFTISRDNSKNTLYLQMNTLRAEDTAVYYCAKEESAVAGTGVPYYYYYYMDVWGKGTTVTVSS VL: not shown | binds
C93D1 (antibody, V domains shown) VH: QVQLVESGGGVVQPGRSLRLSCAASGFTFSNYGMHWVRQAPGKGLEWVAVISYDGSNKYYADSVKGRFTISRDNSKNTLYLQMNSLRAEDTAVYYCAKGSYFHSNYWDYFDYWGQGTLVTVSS VL: not shown | binds
C12D5 (antibody, V domains shown) VH: QVQLVESGGGVVQPGRSLRLSCAASGFTFSSYVMHWVRQAPGKGLEWVAVISYDGSNKYYADSVKGRFTISRDNSKNTLYLQMNSLRAEDTAVYYCARDPGARRDGYVSLGGSYDWFDPWGQGTLVTVSS VL: QSVLTQPPSVSGAPGQRVTISCTGTSSNIGAGYDVHWYQQLPGTAPKLLIYGNSNRPSGVPDRFSGSKSGTSASLAITGLQAEDEADYYCQSYDSSLSGWVFGGGTKLTVL | binds
C163E5 (antibody, V domains shown) VH: QVQLQESGPGLVKPSETLSLTCTVSGASIRSFHWSWIRQPAGKGLEWIGRLLTTGSTNYNRSLKSRVTMSVDTSKNQFSLKLSSVTAADTAVYYCSRGTEMNMEVPGVVTGSEFFDYWGQGTLVTVSS VL: EIVLTQSPATLSLSPGERATLSCRASQSVSSYLAWYQRKPGQAPRLLIYDASNRATGIPARFSGSGSGTDFTLTISSLEPEDFAVYYCQQRRNWPETFGQGTKLEIK | binds
C29C2 (antibody, V domains shown) VH: EVQLVQSGAEVKKPGESLKISCKGSGYSFTSYWIGWVRQMPGKGLEWMGIIYPGDSDTRYSPSFQGQVTISADKSISTAYLQWSSLKASDTAMYYCARLPVSTHPLYYYFGMDVWGQGTTVTVSS VL: not shown | binds
C81G9 (antibody, V domains shown) VH: EVQLVESGGGLVQPGGSLRLSCAASGFTFSSYSVNWVRQAPGKGLEWVSYISSSSLTIYYADSVKGRFIISRDNAKNSLYLQMNSLRDEDTAVYHCAREGPSSSWFSYYYMDVWGKGTTVTVSS VL: QSALTQPASVSGSPGQSITISCTGTSSDVGSYNLVSWYQQHPGKAPKLMIYEGSKRPSGVSNRFSGSKSGNTASLTISGLQAEDEAEYYCCSYAGSSTSPYVFGTGTKVTAL | binds
C81B10 (antibody, V domains shown) VH: QLQLQESGPGLVKPSQTLSLTCTVSGGSISSGDYYWSWIRQPPGKGLEWIGYIYYSGSTYYNPSLKSRVTISVDTSKNQFSLKLSSVTAADTAVYYCARVRGTYYYVSGSYYPRPLYYYYMDVWGKGTTVTVSS VL: not shown | binds
G32L7 (antibody, V domains shown) VH: EVQLLESGGGSVQPGGSLRLSCAASGFTFSSYAMSWVRQAPGKGLEWVSVISGSGGSTYYADSVKGRFTISRDNSKNTLYLQMNSLRAEDTAVYYCAKAERITMLVVVTLIDYWGQGTLVTVSS VL: QSVLTQPPSVSAAPGQKVTISCSGSSSNIGNNYVSWYQQLPGTAPKLLIYDNNKRPSGIPDRFSGSKSGTSATLGITGLQTGDEADYYCGTWDSSLSAVVFGGGTKLTVL | binds
C12E9 (antibody, V domains shown) VH: QVQLVQSGAEVKKPGSSVKVSCKASGGTFSSYAISWVRQAPGQGLEWMGGIIPIFGTASYAQKFQGRVTITADESTSTAYMELSSLRSEDTAVYYCARGSVGLGGDCYQCGYYFDYWGQGTLVTVSS VL: not shown | binds
G32B1 (antibody, V domains shown) VH: QVQLVESGGGVVQPGRSLRLSCAASGFTFSSYGMHWVRQAPGKGLEWVAVISYDGSNKYYADSVKGRFTISRDNSKNTLYLQMNSLRAEDTAVYYCAKVVAPYYYYYYGMDVWGQGTTVTVSS VL: QSALTQPASVSGSPGQSITISCTGTSSDVGGYNYVSWYQQHPGKAPKLMIYEVSNRPSGVSNRFSGSKSGNTASLTISGLQAEDEADYYCSSYTSSSTSWVFGGGTKLTVL | binds
C12C10 (antibody, V domains shown) VH: not shown VL: QSALTQPASVSGSPGQSITISCTGTSSDVGGYNYVSWYQQHPGKAPKLMIYDVSYRPSGVSNRFSGSKSGNTASLTISGLQAEDEADYYCSSYTSSSILGVFGGGTKLTVL | binds
C83A7 (antibody, V domains shown) VH: QVQLQESGPGLVKPSETLSLTCTVSGGSVSSGSYYWSWIRQPPGKGLEWIGYIYYSGRTNYNPSLKSRVTISVDTSKNQFSLKLSSVTAADTAVYYCARTVITMIVGNWYFDLWGRGTLVTVSS VL: not shown | binds
